Test results published in doi:10.1101/160580 (bioRxiv, 2017).
Positions count from the first letter of the chain named. In names and notes the source's numbering stands.

Legend:
NMR relaxation = target: the molecule itself; assay: NMR relaxation
[1] = target: the molecule itself; assay: cell-based or functional assay

B1: sperm lysin from red abalone (Haliotis rufescens), wild type (natural protein)
chain: RSWHYVEPKFLNKAFEVALKVQIIAGFDRGLVKWLRVHGRTLSTVQKKALYFVNRRYMQTHWANYMLWINKKIDALGRTPVVGDYTRLGAEIGRRIDMAYFYDFLKDKNMIPKYLPYMEEINRMRPADVPVKYMGK
- binding result (NMR relaxation): binds

B2: F104A lysin (monomeric mutant of red abalone sperm lysin) (natural protein)
chain: B1 chain with F104A
- in vitro VE dissolution (turbidity at 640 nm), F104A lysin against WT lysin [1]: ≥ 4 fold
